Laboratory results published in patent US20220308072A1.

Columns and labels:
[1] = target: Recombinant, his tagged full length human frataxin protein (Abcam ab95502) (human) (UniProt Q16595); assay: Simoa sandwich 3-step; capture Ab-2; frataxin 100 pg/mL
[2] = target: Recombinant, his tagged full length human frataxin protein (Abcam ab95502) (human) (UniProt Q16595); assay: Simoa sandwich 3-step; capture Ab-1; frataxin 1000 pg/mL
[3] = target: Recombinant, his tagged full length human frataxin protein (Abcam ab95502) (human) (UniProt Q16595); assay: Simoa sandwich 3-step; capture Ab-2
[4] = target: Recombinant, his tagged full length human frataxin protein (Abcam ab95502) (human) (UniProt Q16595); assay: Simoa sandwich 3-step; capture Ab-5; frataxin 100 pg/mL
[5] = target: Recombinant, his tagged full length human frataxin protein (Abcam ab95502) (human) (UniProt Q16595); assay: Simoa sandwich 3-step; capture Ab-3; frataxin 100 pg/mL
[6] = target: Recombinant, his tagged full length human frataxin protein (Abcam ab95502) (human) (UniProt Q16595); assay: Simoa sandwich 3-step; capture Ab-3; frataxin 1000 pg/mL
[7] = target: Recombinant, his tagged full length human frataxin protein (Abcam ab95502) (human) (UniProt Q16595); assay: Simoa sandwich 3-step; capture Ab-5; frataxin 1000 pg/mL
[8] = target: Recombinant, his tagged full length human frataxin protein (Abcam ab95502) (human) (UniProt Q16595); assay: Simoa sandwich 3-step; capture Ab-4; frataxin 1000 pg/mL
[9] = target: Recombinant, his tagged full length human frataxin protein (Abcam ab95502) (human) (UniProt Q16595); assay: Simoa sandwich 3-step; capture Ab-4
[10] = target: Recombinant, his tagged full length human frataxin protein (Abcam ab95502) (human) (UniProt Q16595); assay: Simoa sandwich 3-step; capture Ab-3
[11] = target: Recombinant, his tagged full length human frataxin protein (Abcam ab95502) (human) (UniProt Q16595); assay: Simoa sandwich 3-step; capture Ab-4; frataxin 100 pg/mL
[12] = target: Recombinant, his tagged full length human frataxin protein (Abcam ab95502) (human) (UniProt Q16595); assay: Simoa sandwich 3-step; capture Ab-1; frataxin 100 pg/mL
[13] = target: Recombinant, his tagged full length human frataxin protein (Abcam ab95502) (human) (UniProt Q16595); assay: Simoa sandwich 3-step; capture Ab-2; frataxin 1000 pg/mL
[14] = target: Recombinant, his tagged full length human frataxin protein (Abcam ab95502) (human) (UniProt Q16595); assay: Simoa sandwich 3-step; capture Ab-5
[15] = target: Recombinant, his tagged full length human frataxin protein (Abcam ab95502) (human) (UniProt Q16595); assay: Simoa sandwich 3-step; capture Ab-1; frataxin 10000 pg/mL
[16] = target: Recombinant, his tagged full length human frataxin protein (Abcam ab95502) (human) (UniProt Q16595); assay: Simoa sandwich 3-step; capture Ab-2; frataxin 10000 pg/mL
[17] = target: Recombinant, his tagged full length human frataxin protein (Abcam ab95502) (human) (UniProt Q16595); assay: Simoa sandwich 3-step; capture Ab-5; frataxin 10000 pg/mL

UniProt Q16595, sequence (Q16595 42-210): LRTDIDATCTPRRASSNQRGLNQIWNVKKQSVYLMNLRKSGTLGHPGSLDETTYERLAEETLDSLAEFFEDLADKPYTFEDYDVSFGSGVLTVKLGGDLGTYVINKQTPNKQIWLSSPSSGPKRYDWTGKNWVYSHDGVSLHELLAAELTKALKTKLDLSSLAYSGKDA

**Q.** Which results are given for “Ab-1, unconjugated mouse monoclonal to human Frataxin (LSBio LS-C760752) (antibody)”?
**A.** Ave AEB [1]: 0.0069 AEB; S/B [1]: 4.45; Ave AEB [2]: 0.0953 AEB; LOD [3]: 7.78 pg/mL; Ave AEB [4]: 0.834 AEB; S/B [4]: 9.35; Ave AEB [5]: 1.92 AEB; S/B [5]: 2.05; Ave AEB [6]: 10.3 AEB; S/B [6]: 11; Ave AEB [7]: 8.56 AEB; S/B [7]: 95.9; Ave AEB [8]: 12.4 AEB; S/B [8]: 3.63; LOD [9]: 66 pg/mL; LOD [10]: 23.8 pg/mL; Ave AEB [11]: 4.72 AEB; S/B [11]: 1.37; Ave AEB [12]: 0.007 AEB; Ave AEB [13]: 0.0712 AEB; S/B [13]: 46.2; LOD [14]: 4.85 pg/mL; Ave AEB [15]: 1.19 AEB; Ave AEB [16]: 1.36 AEB; S/B [16]: 885; Ave AEB [17]: 28.9 AEB; S/B [17]: 324
